# B1: polypeptide HR1 combined with HR2A (peptide)
# peptide 1: KESTQKAIDGVTNKVNSIIDK
# peptide 2: RRIENLNKKMEDGFLDVWTY
# B2: polypeptide HR1 combined with HR2B (peptide)
# peptide 1: KESTQKAIDGVTNKVNSIIDK
# peptide 2: NAELLVLMENERTLDFHDSNVKN
# B3: polypeptide HR1 combined with HR2C (peptide)
# peptide 1: KESTQKAIDGVTNKVNSIIDK
# peptide 2: FHDSNVKNLYDKVRLQ
# What was measured:
# Experiment in all cases: cell-based or functional assay
# [1] = biological target: membrane protein HA of recombinant avian influenza virus QH-WSN (HA of H5N1 strain A/bar-headed goose/Qinghai/1/05) (avian influenza virus H5N1, strain A/bar-headed goose/Qinghai/1/05)
# [2] = biological target: membrane protein HA of recombinant human influenza virus A/WSN/33 (H1N1) (human influenza virus A/WSN/33 (H1N1)) (UniProt P03454)
# [3] = biological target: membrane protein HA of recombinant avian influenza virus QH-WSN (HA of H5N1 strain A/bar-headed goose/Qinghai/1/05) (avian influenza virus H5N1, strain A/bar-headed goose/Qinghai/1/05); remark: listed apart in the source
# [4] = biological target: membrane protein HA of recombinant human influenza virus A/WSN/33 (H1N1) (human influenza virus A/WSN/33 (H1N1)) (UniProt P03454); remark: listed apart in the source
Molecule,plaque inhibitory rate on cells expressing the fusion protein [1] [%],plaque inhibitory rate on cells expressing the fusion protein [2] [%],"IC50, plaque inhibition on MDCK cells, peptide combination [3] [µM]","IC50, plaque inhibition on MDCK cells, peptide combination [4] [µM]"
fusion protein HR1-EGFP expressed on the membrane of MDCK cells (from UniProt P08138 251-272),25,11,,
fusion protein HR2-EGFP expressed on the membrane of MDCK cells (from UniProt P08138 251-272),57.8,43,,
B1,,,43.6,52.9
B2,,,36.7,62.5
B3,,,41.6,30

# Source: patent US20100249021A1
